Data reported in patent US20240059785A1.

Key:
[1] = biological target: human CD20 (Homo sapiens CD20) (Homo sapiens) (UniProt P11836); assay: cell-based or functional assay
[2] = biological target: human CD37 (Homo sapiens CD37) (Homo sapiens) (UniProt P11049); assay: cell-based or functional assay
human CD37 (Homo sapiens CD37) (Homo sapiens), sequence (P11049 whole entry): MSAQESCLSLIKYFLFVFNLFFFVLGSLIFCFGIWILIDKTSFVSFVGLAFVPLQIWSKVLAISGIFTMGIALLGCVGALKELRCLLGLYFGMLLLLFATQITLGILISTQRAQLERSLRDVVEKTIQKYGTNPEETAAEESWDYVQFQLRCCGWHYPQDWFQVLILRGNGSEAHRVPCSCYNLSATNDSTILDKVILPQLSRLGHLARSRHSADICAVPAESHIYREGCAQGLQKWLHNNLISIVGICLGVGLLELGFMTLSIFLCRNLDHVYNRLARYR

human CD20 (Homo sapiens CD20) (Homo sapiens), sequence (P11836 whole entry): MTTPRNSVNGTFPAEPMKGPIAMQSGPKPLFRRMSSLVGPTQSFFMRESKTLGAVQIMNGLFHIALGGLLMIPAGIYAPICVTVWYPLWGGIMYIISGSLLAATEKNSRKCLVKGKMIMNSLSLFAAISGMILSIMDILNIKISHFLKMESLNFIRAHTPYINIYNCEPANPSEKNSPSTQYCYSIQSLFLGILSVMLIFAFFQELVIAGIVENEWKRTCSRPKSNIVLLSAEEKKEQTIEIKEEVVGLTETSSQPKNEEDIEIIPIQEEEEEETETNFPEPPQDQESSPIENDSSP

Substance | ADCC reporter assay (FcγRIII-transfected Jurkat NFAT luciferase effector cells), Mean RLU, CD20/CHO target cells, Effector:Target 4:1 [1] | ADCC reporter assay (FcγRIII-transfected Jurkat NFAT luciferase effector cells), Mean RLU, CD20/CHO target cells, Effector:Target 8:1 [1] | ADCC reporter assay (FcγRIII-transfected Jurkat NFAT luciferase effector cells), Mean RLU, Raji target cells (express both hCD20 and hCD37), Effector:Target 4:1 [1] | ADCC reporter assay (FcγRIII-transfected Jurkat NFAT luciferase effector cells), Mean RLU, Raji target cells (express both hCD20 and hCD37), Effector:Target 8:1 [1] | ADCC reporter assay (FcγRIII-transfected Jurkat NFAT luciferase effector cells), Mean RLU, CD37/CHO target cells, Effector:Target 4:1 [2] | ADCC reporter assay (FcγRIII-transfected Jurkat NFAT luciferase effector cells), Mean RLU, CD37/CHO target cells, Effector:Target 8:1 [2]
human IgG1 isotype control antibody (an anti-dinitrophenyl (anti-DNP) antibody) | 20900 RLU | 36000 RLU | 16600 RLU | 31500 RLU | 20600 RLU | 36200 RLU
rituximab (antibody) | – | – | – | – | 20500 RLU | 35900 RLU
